Test results reported in the DeepSol protein solubility set.

Assay: soluble on expression in E. coli; label from the status in PepcDB or PDB records

| Sequence | soluble on expression in E. coli |
| --- | --- |
| MSLKITLFGGAGFLGSHVCDKLSEAGHDVTVVDLRPSPYLRPDQTMITGNILDEELVARAVEGADMVFNYAGIADIGEANRRPVDTARINVLGNVIALEACRKAGVKRYVFASSLYVYGKSGGFYRCSKQACELYIENYQAMHGLDYTILRYGSLYGSRADIRNAINRFVAEALEKGAITYYGSPTALREYIHVEDAALCTVEVLKPEYANENIVLSGNQPMRVGDLFKMIGEMLGKDIEVVYQHDPNSGHYQITPYAFMPKVGKKMTPILTTDLGQGILRVMEDVHREMHPDMHDVGGYLVSKDEGHHHHHH | soluble |
| MSLKKDTSEQSVEQSEVGLSLEELIRRGARDLIERAIEVEVQQLLAEYENVRMLGGSRAVVRNGYLPAREVLTAVGNVEVRVPKVRDRSGAGVKFNSALVPPYVRRSARVSAALPWLYLKGISTGDMREALTVLLGDEAKGLSPNVVSRLKTEWASDYAGWMKRDLSGSRYVYWWADGVHTSLRGEDDARQCLLVVIGVRLDGTKELVTVGDGHRESKASWLELLRDLKARGLEVGPRLAVGDGALGFWGALDELYPETRRQRCWVHKSANVLNALNALPKSLQAKAKAQLHEIWMAPTRAAAVSAFERFVECYQAKYPKAADKLVRDRDALLAFYDFPAEHWIHLRTTNPIESTFATVRHRTTRTKNCVSRSSFLGLAFKLVQEAEKSWRRIRGVERIAELMGGVVFKDGEPVKDEGHHHHHH | soluble |
| MSLKKETLSDRLNKAMELAGMSQGALAKASGVAQPTIWRLTSGNARGSTKIVEIANALGVNSEWLSTGIGPMKKDGTTPINASPSSNTFKIDILDLEVSAGPGVINREFVEILRSVEYSQDDARHMFDGRKAENIRIINVRGDSMSGTIEPGDLLFVDVSIKNFDGDGIYAFLYDDTAHVKRLQKMKDKLLVISDNKSYSAWDPIERDEMNRVFVFGKVIGSMPQTYRKHGEGHHHHHH | soluble |
| MSLKKIQFFDTTLRDGEQTPGVNFDVKEKIQIALQLEKLGIDVIEAGFPISSPGDFECVKAIAKAIKHCSVTGLARCVEGDIDRAEEALKDAVSPQIHIFLATSDVHMEYKLKMSRAEVLASIKHHISYARQKFDVVQFSPEDATRSDRAFLIEAVQTAIDAGATVINIPDTVGYTNPTEFGQLFQDLRREIKQFDDIIFASHCHDDLGMATANALAAIENGARRVEGTINGIGERAGNTALEEVAVALHIRKDFYQAETNIVLNQFKNSSDLISRLSGMPVPRNKAVIGGNAYAHESGIHQDGVLKNPDTYEIITPALVGVDKNSLPLGKLSGKHAFNTRMEEMGYTLTEQEQKDAFKRFKQLADAKKEVTEEDLHALILGQSSESADDFELKHLQVQYVTGGVQGAIVRIEERDGALVEDAATGSGSIEAIYNTINRLMKQDIELTDYRIQAITAGQDAQAEVHVVIKNDKGAVFHGIGIDFDVLTASAKAYLQASGKSKTASKQADFEEVKEGHHHHHH | not soluble |
| MSLKKLDYHFHSHFSADSEELPRKHVTEAIAHGLEEICFTEHRDFYFPGMDFSLNLPEYFQEINRLQAEFKDKIKIKIGLEMGIDLRFKSEINQFIDSAPFDFVIASVHEIGDIEVYDGTEFYLQKIKEEAQREYLLACLDVVQNFENYNSFGHLDYVARYGPYTDKSIKFAENREILFEILRALASKEKALEINTRLFDDPKTEQFYSDLLINFKKLGGKFITLGTDSHIAKRDWLSIHKARTLIKKAGFHELATFSGMKIDKNKKSIKEGHHHHHH | soluble |
| MSLKKQPGFTQDYLLSKATTLPDKTRLERAVEPLCARHPGECGILALDNSLDAFAARYRLTEMAARTLDVQYYIWEDDMSGRLLFSVLLSAAKRGVHVRLLLDDNNTPGLDDTLRLLDSHPNIEVRLFNPFSFRTLRALGYLTDFARLNRRMHNKSYTADGVVTLVGGRNIGDAYFGAGEEPLFSDLDVMAIGPVVNDVANDFERYWRCSSVSTLQQVLSLSEQELTQRIELPESWYNDEITRRYLHKLETSQFMADLDCGTLPLIWAKTRLLSDDPSKGEGKAQRHSLLPQRLFDVMGSPTERIDIISAYFVPTRAGVAQLLNLVRKGVKIAILTNSLAANDVAVVHAGYARWRKKLLRYGVELYELKPTREHETAVHDRGLTGNSGSSLHAKTFSIDGSKVFIGSLNFDPRSTLLNTEMGFVIESETLATLIHKRFTQSQRDAAWQLRLDRWGRINWIDRQQEEEKVLKKEPATRFWQRVLVRLAAILPVEWLLEGHHHHHH | soluble |
| MSLKLPGKIAIMGGGSWATAIAKMCLAQEDSINWYMRRDDRIADFKRLGHNPAYLTGVKFDTKRITFSSNINDVVKESDTLIFVTPSPYLKAHLKKLKTKIKDKFIITAIKGIVPDDNVIVSEYFTKEYGVPPENIAVLAGPCHAEEVALERLSYLTIACPDKDKARIFARRLGSSFIKTSVSDDVAGIEYSSVLKNVYAIAAGICSGLKYGDNFQAVLISNAIQEMNRFLNTVHPLNRNVDDSVYLGDLLVTGYSNFSRNRTFGSMIGKGYSVKSAQIEMEMIAEGYYGTKCIKEINKHHHVNMPILDAVYNILYERISPMIEIKLLTDSFREGHHHHHH | soluble |
| MSLKLRARLPRGLADRGPAEIAATRAMVEKIREVYERYGFEPVETPAFEYTDALGKFLPDQDRPNEGVFSLQDDDEQWISLRYDLTAPLARYVAENFDQLPKPHRSYRFGWVFRNEKPGPGRFRQFMQFDADTVGAPTAAADAEMCMMAADTMEALGIPRGSYVVKVNNRKVLDGVLESIGLGGDENAGRRLTVLRAIDKSDKFAPEEIKKLLGPGRWDGGEEGKGDFTKGAMLSDDQSELILRATSPSFIAGRFNADGSGGISNIDTVELLRSTADNETLKQGCDELAVIADLLDACGYGATSANPDVRVVIDPSVVRGLEYYTGPVYEVELLLDTKDEKGRPVRFGSVGGGGRYDGLVSRFRGEPVPATGFSIGVSRLQAALTLIGQLGNKPQAGPVVVTVFGGEIAGYQKMVATLRKAGIRAELYLGNPKHSLGQQMKYADKRNSPCAIIQGSDEKQQGIVQIKDLILGAELASLEKDRDEYLKKQAEAQFSEGHHHHHH | not soluble |
| MSLKMFEVPVSSVSISINSALLKGCRKFMVLGYGEIGKLAIKHLLSHKVECIYLIVRDKSKASDLEGEIVEVLDFNEKNQVINEIDCIVSCTAAPHTVVRNEDIKTEGETIHIYDLAVPRDVDKELSEKERVILKDIDEISKIDDKNKKIRKERMEEYKHIVEESIDEFLNWLKIREVSSKIRNIKIREGHHHHHH | not soluble |
| MSLKNILIIGANGFTGRRILNDLSVNPIYHVTGCSLRDDICPGKDYRFVRTDIRDENEVRKLFKECRPDIVINTSALSVPDYCETHHAEAEATNVTAVETIAHVCEQYGSRFIHLSTDFVFDGKSTRLYKEEDEAIPVNYYGVTKLKAEKIIASICSNYAIVRVVVVYGKALPGQHGNILQLVANRLRNGETIRVVSDQWRTPTFVGDISVGVEKLMFHTANGIYHICGSECLTIAEIAYRVADFLKLDRSLIEPVTTEEMKEVTPRPRFSGLSIEKAKAEIGYTPRTLEEGMEASEGHHHHHH | soluble |
| MSLKNISLAMLARQIGVGVATVDRVLNERGGVSPQTTRKVLQAAREAGLKRILPEEHRFPWQIEVFLSSNDSFFFPQLAQDFAAVADSLGYRRLTLHRTFVPESQPTTLARRIARSCQQRQGIIVFGNDHPAVHDALRRCREAGVPAITLATDLPGADRLCHVGINQLQAGRTAGLMLGRMTPRPGEVLMVSGRQDYSAHRLRIQGFREVLSQRFPHLQLSDVLAGEERREQITRLVEQALCRSRNIVGIYNTGLGNTQIAEALARHRREGDVCWITHERYNTTRQQLAKGSLALTLDQNTRQHAQLAIDLMLRHLESGYQPQTYADGKVDFILYSAENVDEGHHHHHH | soluble |
| MSLKNKLQVKIPGKLYVAGEYAVVESGHTAILTAVNRYITLTLEDSERNELWIPHYENPVSWPIGGELKPDGEHWTFTAEAINIATTFLKSEGIELTPVKMVIETELIDQSGAKYGLGSSAAATVAVINALMTKFYPEISMLKKFKLAALSHLVVQGNGSCGDIASCMYGGWIAYTTFDQEWVKHRLAYKSLEWFMKEPWPMLQIETLEEPVPTFSVGWTGTPVSTGKLVSQIHAFKQEDSKNYQHFLTRNNEIMKQIIQAFHTKDEELLYSSIKENRRILQELGTKAGVNIETSLLKELADSAENMGGAGKSSGSGGGDCGIAFSKTKELAEKLVNEWEKLGIKHLPFHTGRVQITEGHHHHHH | soluble |
| MSLKNQLGQLALEQAKTFGGKLEVQPKVDIKTKHDLSIAYTPGVASVSSAIAKDKTLAYDLTTKKNTVAVISDGTAVLGLGDIGPEAAMPVMEGKAALFKAFAGVDAIPIVLDTKDTEEIISIVKALAPTFGGINLEDISAPRCFEIEQRLIKECHIPVFHDDQHGTAIVVLAAIFNSLKLLKKSLDEVSIVVNGGGSAGLSITRKLLAAGATKVTVVDKFGIINEQEAAQLAPHHLDIAKVTNREFKSGTLEDALEGADIFIGVSAPGVLKAEWISKMAARPVIFAMANPIPEIYPDEALEAGAYIVGTGRSDFPNQINNVLAFPGIFRGALDARAKTITVEMQIAAAKGIASLVPDDALSTTNIIPDAFKEGVAEIVAKSVRSVVLKSEGHHHHHH | soluble |
| MSLKNTTIADVAAAADVSVTTVSRYLNGNYQKMSAATKQRIKETIATLHYAPKASARKMRQDHSQLIGVVVGDIANVFSSLLFKGIYDVLQPAGYDVLLMNANNTATTEHGELTRLAAQQVDGIILQPSAATAAAYAGLTIPTIIVDRQLPNSPLAQVLSSNFDASYQLGQHLREQGYRRLITVGRAVAPHTAQTDRLAGLTATGLSVIHLDMTSHGAPWLTQQLRQYQQAPDKPVIISLMGPLLFEILASLKAAHLHFPADVGLVSFDDWQWSQYVNDGIYLLQQQPALMGQLAATTLLHQLSTTPTTMTQYVPVAPVVKPSLEGHHHHHH | not soluble |
| MSLKQKLIKKAQELRQHGFTTGEIADELNVSMDTARWLTLQKPAEEKPEAPVDFFINWKSLGGNSTRLRYVSGALSDMALSHGEAEVILGIAVSGIPFATMMADFLEDMSGVETSLAVYHPHKHRKEKDDGEGAISTNFGSVEGKKVVIVDDVITSGKTVKEVIHAVKDHGGEPIAVTVLIDKSGLSEIEEVPIESLIKVGRLEGHHHHHH | soluble |
| MSLKQSHIRNFAIIAHIDHGKSTLADQIMSLTQTVSAREQHAQLLDDMTVEQAHGVTVKARTVRNYYQADDGQEYEYNLIDTPGHVDFNYEVAKSLAATEGAILLVDATQGVQAQTIANYRIAKQRQLTLIPVLNKVDLPSADIDAALAQLNDLDSAFTPEQVLQISAKTGQGVPAVLEAIKQRLPAPQGDLHQPLKALVFDSLYDPYQGVIAYVRLIDGQLKSQQALCLMQGQQDFNGKAIGVFAPQMHPQESLSAGDVGYVVTGIKDPRKVRVGDTLTSVATPTQRPLAGYQPAKSMVFAGLYPKNNDYPALKEAVQKLNLNDPSFTYVEERSEALGVGFRCGFLGTFHLQIIRERLHDEYGVDVLTTAPNVTYHVTLTNGQQVIVNNPVQFPAFSLIKEVTEPFMKAEITMPADNLNAVLKLAEQHKGTLIDLANSGDLIVASLKIPLSEIAYHFFSELKSVSHGFASLSTAFMANEVSDLVKVEVDINEGHHHHHH | soluble |
| MSLKRVSEMKFCFCGEKKDSRVKPLRVAIIGAGPAGLSAACSLACDGFDVHVYDKMPEPGGMVAFGIPEWRIPISKVRQAVKEIEELGVVFHMRTKVVYDSPKELGDEFAERFVSLEKLMKEYDAILIATGAWRPRILDIPGKELKGVENALQLLLRINLARIGYLPQTKMPSFEGKRVVVIGAGYTAVDVAKEAKLLGAKSVTIAYRRSLQDSYAKNEFKKLIKEGVKFLEYVTPVRIFGDENVREVEFAKTKVVRGSVITTEEKRTIPADVIIFAIGQIPTNPIKEVLCSNEDILKNAGIFFAGDVISPRNIGTAIREGRKVAEEIKAWLTEHAFLNIRLSYPVSLRDISKSATEGHHHHHH | soluble |
